Results as given in patent publication US20080119430.
Substitutions are numbered along the chain they refer to. Numbers in names are those of the source.

B1: BNO69 (endogenous protein in HUVECs, knocked down by adenoviral antisense BNO69R) (protein)
chain: MPEDRNSGGCPAGALASTPFIPKTTYRRIKRCFSFRKGIFGQKLEDTVRYEKRYGNRLAPMLVEQCVDFIRQRGLKEEGLFRLPGQANLVKELQDAFDCGEKPSFDSNTDVHTVASLLKLYLRELPEPVIPYAKYEDFLSCAKLLSKEEEAGVKELAKQVKSLPVVNYNLLKYICRFLDEVQSYSGVNKMSVQNLATVFGPNILRPKVEDPLTIMEGTVVVQQLMSVMISKHDCLFPKDAELQSKPQDGVSNNNEIQKKATMGLLQNKENNNTKDSPSRQCSWDKSESPQRSSMNNGSPTALSGSKTNSPKNSVHKLDVSRSPPLMVKKNPAFNKGSGIVTNGSFSSSNAEGLEKTQTTPNGSLQARRSSSLKVSGTKMGTHSVQNGTVRMGILNSDTLGNPTNVRNMSWLPNGYVTLRDNKQKEQAGELGQHNRLSTYDNVHQQFSMMNLDDKQSIDSATWSTSSCEISLPENSNSCRSSTTTCPEQDFFGGNFEDPVLDGPPQDDLSHPRDYESKSDHRSVGGRSSRATSSSDNSETFVGNSSSNHSALHSLVSSLKQEMTKQKIEYESRIKSLEQRNLTLETEMMSLHDELDQERKKFTMIEIKMRNAERAKEDAEKRNDMLQKEMEQFFSTFGELTVEPRRTERGNTIWIQ
B2: BNO69 mutant (R82A) (protein)
chain: B1 chain with R82A

Target: Rho (active Rho-GTP, endogenous in HUVECs)

Protein | fold increase in Rho activity (active Rho-GTP) in HUVECs after BNO69 knockdown with BNO69R, compared to empty vector | fold increase in Rho activity in HUVECs expressing the R82A mutant, compared to empty vector
B1 | 3.1±0.5 fold increase in Rho activity with BNO69R | 
B2 |  | 2.6±0.7 fold increase (n=4 experiments) in Rho activity
